{
  "source": "patent EP2014310A2",
  "about": "(Dyax Corporation, dated 2009)",
  "binders": {"B1": {"name": "SEQ ID NO:454, lactam disulfide bridge replacement analog (peptide)", "peptide": "Ac-AGPTWKEDDWYYEWLFGTGGGK-NH2", "modifications": "lactam 6-13"}, "B2": {"name": "SEQ ID NO:462, fragment of SEQ ID NO:356 (Asp-Trp-Tyr-Tyr motif with Gly-Gly-Gly-Lys) (peptide)", "peptide": "DWYYGGGK"}, "B3": {"name": "SEQ ID NO:320 (peptide)", "peptide": "Ac-AGMPWCVEKDHWDCWWWGTGGGK-NH2", "modifications": "disulfide 6-14 (inferred); not fully specified; also: C-terminal Lys fluorescein-labeled in some assay forms"}, "B4": {"name": "SEQ ID NO:277 (peptide)", "peptide": "Ac-AGPTWCEDDWYYCWLFGTGGGK-NH2", "modifications": "disulfide 6-13 (inferred); not fully specified"}},
  "key": {"[1]": {"target": "T1, KDR on transiently KDR-transfected 293H cells (human, UniProt P35968 20-1356)", "T1 construct": "whole, on cells; also called KDR-expressing cells", "T1 sequence (P35968 20-1356)": "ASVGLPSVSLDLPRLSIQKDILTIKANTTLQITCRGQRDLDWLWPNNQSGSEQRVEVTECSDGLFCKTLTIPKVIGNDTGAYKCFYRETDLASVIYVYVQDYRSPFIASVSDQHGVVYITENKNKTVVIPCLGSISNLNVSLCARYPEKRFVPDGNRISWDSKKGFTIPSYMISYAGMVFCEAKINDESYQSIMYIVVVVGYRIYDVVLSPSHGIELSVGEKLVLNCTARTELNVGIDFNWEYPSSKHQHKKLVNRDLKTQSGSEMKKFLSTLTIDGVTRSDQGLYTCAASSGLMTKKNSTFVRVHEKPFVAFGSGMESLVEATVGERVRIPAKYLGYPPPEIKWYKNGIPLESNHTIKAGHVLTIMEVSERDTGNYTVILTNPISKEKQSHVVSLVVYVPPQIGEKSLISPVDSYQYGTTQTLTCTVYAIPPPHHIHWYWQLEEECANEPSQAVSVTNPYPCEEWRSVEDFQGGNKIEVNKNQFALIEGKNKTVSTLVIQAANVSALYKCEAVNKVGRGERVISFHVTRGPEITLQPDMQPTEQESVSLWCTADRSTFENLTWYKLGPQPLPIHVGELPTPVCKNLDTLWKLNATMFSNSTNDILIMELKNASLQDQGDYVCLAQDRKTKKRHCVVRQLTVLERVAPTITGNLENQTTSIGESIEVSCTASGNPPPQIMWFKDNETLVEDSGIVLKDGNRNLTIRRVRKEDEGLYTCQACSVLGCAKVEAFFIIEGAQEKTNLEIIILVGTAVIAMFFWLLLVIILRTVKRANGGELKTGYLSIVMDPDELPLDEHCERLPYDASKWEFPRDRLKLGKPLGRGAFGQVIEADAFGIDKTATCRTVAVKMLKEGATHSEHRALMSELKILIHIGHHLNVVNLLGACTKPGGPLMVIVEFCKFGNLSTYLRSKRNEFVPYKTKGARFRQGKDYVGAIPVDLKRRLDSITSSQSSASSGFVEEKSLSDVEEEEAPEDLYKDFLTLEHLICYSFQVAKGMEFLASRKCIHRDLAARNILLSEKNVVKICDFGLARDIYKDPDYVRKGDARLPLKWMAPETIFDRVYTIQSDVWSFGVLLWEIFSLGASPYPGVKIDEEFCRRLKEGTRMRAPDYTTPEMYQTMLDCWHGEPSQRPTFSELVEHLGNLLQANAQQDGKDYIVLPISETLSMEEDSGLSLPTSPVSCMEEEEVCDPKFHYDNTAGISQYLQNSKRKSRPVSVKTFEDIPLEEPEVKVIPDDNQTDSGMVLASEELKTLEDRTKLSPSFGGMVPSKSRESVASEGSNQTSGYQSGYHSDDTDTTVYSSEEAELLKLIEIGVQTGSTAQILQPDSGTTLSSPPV", "assay": "displacement of 5.5 nM streptavidin-HRP/binding peptide complex from KDR-transfected 293H cells"}, "[2]": {"target": "T1, KDR on transiently KDR-transfected 293H …", "assay": "displacement of 5.5 nM peptide/streptavidin-HRP complex from KDR-transfected 293H cells"}, "[3]": {"target": "T2, human KDR-Fc fusion (R&D Systems #357-KD-050) (human, UniProt P35968 20-764)", "T2 construct": "bought", "T2 sequence (P35968 20-764)": "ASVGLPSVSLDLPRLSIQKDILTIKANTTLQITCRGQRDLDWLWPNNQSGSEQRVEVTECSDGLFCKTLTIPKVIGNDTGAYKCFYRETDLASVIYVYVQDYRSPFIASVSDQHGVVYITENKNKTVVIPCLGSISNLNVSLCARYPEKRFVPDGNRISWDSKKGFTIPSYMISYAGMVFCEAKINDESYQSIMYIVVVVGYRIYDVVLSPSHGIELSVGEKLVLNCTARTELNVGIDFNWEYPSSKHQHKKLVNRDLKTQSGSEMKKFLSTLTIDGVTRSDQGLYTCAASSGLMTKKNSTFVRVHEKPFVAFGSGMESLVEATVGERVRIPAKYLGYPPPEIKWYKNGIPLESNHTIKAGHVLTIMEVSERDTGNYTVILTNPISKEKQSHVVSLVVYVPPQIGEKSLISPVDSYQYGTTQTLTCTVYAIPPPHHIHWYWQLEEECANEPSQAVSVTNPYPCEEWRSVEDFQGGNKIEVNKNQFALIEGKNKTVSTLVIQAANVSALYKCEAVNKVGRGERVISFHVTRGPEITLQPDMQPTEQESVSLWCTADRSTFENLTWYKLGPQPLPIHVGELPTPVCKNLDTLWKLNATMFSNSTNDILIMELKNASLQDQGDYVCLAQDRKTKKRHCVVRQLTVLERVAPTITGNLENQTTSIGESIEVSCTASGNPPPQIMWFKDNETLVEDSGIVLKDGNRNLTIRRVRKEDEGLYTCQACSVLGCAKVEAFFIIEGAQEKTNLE", "assay": "fluorescence anisotropy, fluorescein-labeled peptide"}, "[4]": {"target": "VEGF165 (Peprotech #100-20) (UniProt P15692-4 27-191)", "sequence (P15692 other isoform, or with tags, fused parts or gaps limits assumed)": "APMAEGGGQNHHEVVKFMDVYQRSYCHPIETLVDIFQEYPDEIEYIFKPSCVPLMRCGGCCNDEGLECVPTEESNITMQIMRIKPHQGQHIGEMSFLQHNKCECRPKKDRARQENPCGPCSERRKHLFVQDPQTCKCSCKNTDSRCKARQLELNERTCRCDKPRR", "assay": "fluorescence anisotropy, fluorescein-labeled peptide, VEGF alone"}, "[5]": {"target": "T3, KDR/VEGF complex (KDR-Fc mixed or saturated with VEGF) (human, UniProt P35968 20-764; P15692 27-191)", "T3 construct": "anisotropy: two fold molar excess of VEGF mixed with KDR-Fc; Biacore: KDR-Fc chip saturated with VEGF; also called KDR:VEGF165 complex", "T3 sequence (P35968 20-764, chain 1 of 2)": "as the sequence (P35968 20-764) above", "T3 sequence (P15692 other isoform, or with tags, fused parts or gaps, chain 2 of 2)": "as the sequence (P15692 other isoform, or with tags, fused parts or gaps limits assumed) above", "assay": "fluorescence anisotropy, fluorescein-labeled peptide, KDR-Fc with two fold excess VEGF"}, "[6]": {"target": "T4, murine KDR-Fc fusion (R&D Systems #443-KD-050) (murine, UniProt P35918 20-762)", "T4 construct": "bought; also called recombinant murine KDR-Fc; rmKDR-Fc", "T4 sequence (P35918 20-762)": "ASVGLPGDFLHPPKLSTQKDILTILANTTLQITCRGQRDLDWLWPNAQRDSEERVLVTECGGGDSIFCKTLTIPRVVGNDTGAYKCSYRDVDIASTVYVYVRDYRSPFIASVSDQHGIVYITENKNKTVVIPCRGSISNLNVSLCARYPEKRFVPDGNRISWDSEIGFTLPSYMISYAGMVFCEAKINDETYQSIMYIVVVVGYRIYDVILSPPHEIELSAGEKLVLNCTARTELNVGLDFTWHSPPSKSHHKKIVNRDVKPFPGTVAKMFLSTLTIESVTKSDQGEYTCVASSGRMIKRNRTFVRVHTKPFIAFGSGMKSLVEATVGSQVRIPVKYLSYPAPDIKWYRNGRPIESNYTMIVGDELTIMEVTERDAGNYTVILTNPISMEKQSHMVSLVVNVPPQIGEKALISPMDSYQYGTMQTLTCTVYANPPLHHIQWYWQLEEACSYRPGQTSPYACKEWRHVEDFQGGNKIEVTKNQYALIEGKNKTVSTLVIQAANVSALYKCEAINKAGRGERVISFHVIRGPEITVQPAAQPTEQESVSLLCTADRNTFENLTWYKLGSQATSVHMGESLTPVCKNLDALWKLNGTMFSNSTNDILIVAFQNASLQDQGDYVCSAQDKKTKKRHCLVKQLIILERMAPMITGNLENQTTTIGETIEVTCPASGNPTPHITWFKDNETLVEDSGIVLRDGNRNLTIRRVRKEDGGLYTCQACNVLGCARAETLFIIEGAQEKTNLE", "assay": "BIAcore, KD1 = kd1/ka1, fluorescein-labeled peptide, murine KDR-Fc 5000RU"}, "[7]": {"target": "T4, murine KDR-Fc fusion (R&D Systems …)", "assay": "BIAcore, KD1 = kd1/ka1, fluorescein-labeled peptide, murine KDR-Fc 2700RU"}},
  "note": "Bridge positions count the residues as written; N and C are the ends.",
  "data": [
    {"binder": "B1", "values": [
      {"measurement": "IC50", "setting": "[1]", "result": 108, "unit": "nM"}
    ]},
    {"binder": "B2", "values": [
      {"measurement": "IC50", "setting": "[2]", "result": 850, "unit": "nM"}
    ]},
    {"binder": "B3", "values": [
      {"measurement": "binding result", "setting": "[3]", "result": "no binding"},
      {"measurement": "Kd", "setting": "[4]", "result": 10000, "unit": "nM"},
      {"measurement": "Kd", "setting": "[5]", "result": 140, "unit": "nM"}
    ]},
    {"binder": "B4", "values": [
      {"measurement": "Kd", "setting": "[6]", "result": 33.6, "unit": "nM"},
      {"measurement": "Kd", "setting": "[7]", "result": 36.4, "unit": "nM"}
    ]}
  ]
}
